This is an account of results in PMC11784077.

Common to all, as to assay: non-reducing gel electrophoresis with western blot (trimerization assay); BmN cells expressing GP64 or CARC mutants harvested, lysed in PBS (pH 7.4), separated on 10% nonreducing polyacrylamide gel, blotted with anti-GP64 (AcV5)
Background: In western blotting, separated proteins are transferred to a membrane and probed.

In assay [1] the target is BmNPV GP64 (wild type, signal peptide retained) (Bombyx mori nucleopolyhedrovirus (BmNPV)) (UniProt P41722).
The target in assay [2] is BmNPV GP64 F235A (CARC5 mutant) (Bombyx mori nucleopolyhedrovirus (BmNPV)) (UniProt P41722).
For assay [3], the target named is BmNPV GP64 W154A (CARC2 mutant) (Bombyx mori nucleopolyhedrovirus (BmNPV)) (UniProt P41722).
For assay [4], the target named is BmNPV GP64 W178A (CARC3 mutant) (Bombyx mori nucleopolyhedrovirus (BmNPV)) (UniProt P41722).
Assay [5] concerns the target BmNPV GP64 W299A (CARC6 mutant) (Bombyx mori nucleopolyhedrovirus (BmNPV)) (UniProt P41722).
For assay [6], the target named is BmNPV GP64 Y49A (CARC1 mutant) (Bombyx mori nucleopolyhedrovirus (BmNPV)) (UniProt P41722).
In assay [7] the target is BmNPV GP64 Y188A (CARC4 mutant) (Bombyx mori nucleopolyhedrovirus (BmNPV)) (UniProt P41722).

As a reminder, the stoichiometry N is the number of molecules, sites or subunits per partner or assembly. For the substance “BmNPV GP64 (wild type, signal peptide retained) (from UniProt P41722 1-37) (natural protein)”, the stoichiometry N in assay [1] amounted to 3.

“BmNPV GP64 F235A (CARC5 mutant) (from UniProt P41722 1-37) (natural protein)” yielded a stoichiometry N in assay [2] of 3.

In assay [3], “BmNPV GP64 W154A (CARC2 mutant) (from UniProt P41722 1-37) (natural protein)” registered a stoichiometry N of 3.

“BmNPV GP64 W178A (CARC3 mutant) (from UniProt P41722 1-37) (natural protein)” returned a stoichiometry N in assay [4] of 3.

Take “BmNPV GP64 W299A (CARC6 mutant) (from UniProt P41722 1-37) (natural protein)”: in assay [5], the stoichiometry N turned out to be 3.

“BmNPV GP64 Y49A (CARC1 mutant) (from UniProt P41722 1-37) (natural protein)”: in assay [6], the stoichiometry N came to 3.

Substance “BmNPV GP64 Y188A (CARC4 mutant) (from UniProt P41722 1-37) (natural protein)” returned a stoichiometry N in assay [7] of 3.
